{
  "source": "patent US20160289290A1",
  "about": "“N-GLYCOSYLATED INSULIN ANALOGUES” (Merck Sharp & Dohme Corp., priority 2011, published 2016)",
  "key": {"insulin receptor (IR) [1]": {"molecular_target": "T1, insulin receptor (IR) (Homo sapiens, UniProt P06213)", "test": "In vitro insulin receptor binding (FIG. 5A)", "description": "(§1) FIG. 5A, FIG. 5B, FIG. 5C, and FIG. 5D show[s] in vitro activities of the two N-glycosylated insulin analogues at the insulin and insulin-like growth factor (IGF-1) receptors.\n(§2) N-glycans provide a means for modulating IR binding. […] The sialylated N-glycans extended the PK of the insulin relative to insulin analogues having non-sialylated N-glycans. However, the extended PK is balanced by the reduced binding at the IR. […] In light of the examples shown herein, modulating insulin-IR interactions can be accomplished by providing glycosylated insulin analogues in which one or more N-glycans have been added to the molecule by N-linked glycosylation in vivo or by attaching one or more of the N-glycans to the insulin molecule in vitro or a combination of both."}, "[2]": {"test": "Circulating insulin analogue levels during insulin tolerance test (ITT)", "details": "FIG. 3A/3B"}, "insulin receptor (IR) [3]": {"molecular_target": "T1, insulin receptor (IR)", "test": "In vitro insulin receptor phosphorylation / IR signaling assay (FIG. 5C)", "assay_type": "cell-based", "description": "as §1, §2"}, "[4]": {"test": "Glucose levels during mouse ITT", "assay_type": "in vivo"}, "IGF-1R": {"molecular_target": "IGF-1R (Homo sapiens, UniProt P08069)", "test": "IGF-1 receptor binding (FIG. 5B)", "description": "as §1\nPublished studies have shown insulin to have a reduced interaction with IGF-1R when it contains a net negative charge at the end of the B-chain (Slieker et al., op. cit.). Therefore, we hypothesized that an N-glycosylated insulin analogue having sialic acid terminated-N-glycans would have reduced IGF-1R binding."}, "[5]": {"test": "Glucose responsiveness in C57BL/6 mice with or without α-methylmannose", "assay_type": "in vivo", "experimental": "FIG. 40A, FIG. 40B, FIG. 40C, and FIG. 40D show in vivo activity of insulin B:P28N des(B30) analogues with an N-glycan attached to position B28. C57BL/6 mice at 12 weeks of age were fasted two hours before dosed with insulin des(B30) analogues with GS2.1 or GS5.0 N-glycan compositions by s.c injection. The effect on blood glucose was determined as a function of time in the absence and presence of α-methylmannose. FIG. 40A: vehicle; FIG. 40B: GS5.0; FIG. 40C: GS2.1; and FIG. 40D: summarizes the results.\nTo study the glucose responsiveness of the GS2.1 and GS5.0 insulin analogues, C57BL/6 mice at 12 weeks of age were fasted two hours before dosed with GS2.1 or GS5.0 by s.c injection. At the same time, animals received i.p. administration of α-methylmannose solution (21.5% w/v in saline, 10 ml/kg) or vehicle. […] Blood glucose was measured using a glucometer (OneTouch Ultra LifeScan; Milpitas, Calif.) at time 0 and then 30, 60, 90, and 120 minutes post injection. Glucose Area-Over-the-Curve (AOC) was calculated using values normalized to glucose of time 0 (as 100%)."}, "[6]": {"details": "mouse, in vivo"}},
  "note": "“Also recorded” adds a separate entry of the source. Read-outs that look alike come from different tables or passages of the source.",
  "data": [
    {"substance": "GS6.0: insulin heterodimer, native A-chain, des(B30) B:P28N B-chain, Asn28 attached to an A2 N-glycan (SEQ ID NO:294)", "values": [
      {"measurement": "In vitro IR binding", "setting": "insulin receptor (IR) [1]", "result": "reduced binding activity to IR"},
      {"measurement": "AUC of circulating insulin analogue levels", "setting": "[2]", "result": "statistically significant improvements in AUC relative to mature NOVOLIN"},
      {"measurement": "AUC of circulating insulin analogue levels", "setting": "[2]; listed as sialic acid-terminated glycoform", "result": "even greater AUC measurements relative to the galactose-terminated glycoform"},
      {"measurement": "In vitro IR signaling activity", "setting": "insulin receptor (IR) [3]", "result": "reduced activity"},
      {"measurement": "In vivo glucose-lowering activity", "setting": "[4]; FIG. 4, listed as sialic acid-terminated glycoform", "result": "retained activity at the insulin receptor; also recorded: longest glucose-lowering activity of all des(B30) samples"},
      {"measurement": "IGF-1R binding affinity", "setting": "IGF-1R", "result": "interacts with IGF-1R with even less affinity than NOVOLIN"}
    ]},
    {"substance": "GS5.0: insulin heterodimer, native A-chain, des(B30) B:P28N B-chain, Asn28 attached to a G2 N-glycan (SEQ ID NO:295)", "values": [
      {"measurement": "Percent glucose AOC in the presence and absence of α-methylmannose", "setting": "[5]; AOC normalized to glucose at time 0", "result": "no change was detected"},
      {"measurement": "Blood glucose lowering, dosed alone", "setting": "[5]; s.c., i.p. vehicle, 0-120 min, GS5.0 at 18 nmol/kg", "result": "lowered glucose during 120 min study period"},
      {"measurement": "Blood glucose lowering in the presence of α-methylmannose", "setting": "[5]; s.c., i.p. α-methylmannose 21.5% w/v, 10 ml/kg", "result": "no detectable additional effect on glucose lowering"},
      {"measurement": "In vivo glucose-lowering activity", "setting": "[4]; FIG. 4", "result": "retained activity at the insulin receptor"},
      {"measurement": "AUC of circulating insulin analogue levels", "setting": "[6]", "result": "statistically significant improvements in AUC relative to mature NOVOLIN"}
    ]}
  ]
}
